Assays:
[1] = target: T1, 2x syn. clamp (two-PDZ clamp, nc=2); assay: cell-based or functional assay
T1 chain: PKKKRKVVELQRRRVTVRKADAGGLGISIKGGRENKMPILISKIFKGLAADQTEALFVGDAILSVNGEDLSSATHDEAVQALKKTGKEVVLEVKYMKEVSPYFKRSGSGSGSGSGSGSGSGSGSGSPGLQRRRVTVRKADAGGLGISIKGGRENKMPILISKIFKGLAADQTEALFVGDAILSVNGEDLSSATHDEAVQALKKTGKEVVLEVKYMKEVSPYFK

[2] = target: T2, 3x syn. clamp (three-PDZ clamp, nc=3); assay: cell-based or functional assay
T2 chain: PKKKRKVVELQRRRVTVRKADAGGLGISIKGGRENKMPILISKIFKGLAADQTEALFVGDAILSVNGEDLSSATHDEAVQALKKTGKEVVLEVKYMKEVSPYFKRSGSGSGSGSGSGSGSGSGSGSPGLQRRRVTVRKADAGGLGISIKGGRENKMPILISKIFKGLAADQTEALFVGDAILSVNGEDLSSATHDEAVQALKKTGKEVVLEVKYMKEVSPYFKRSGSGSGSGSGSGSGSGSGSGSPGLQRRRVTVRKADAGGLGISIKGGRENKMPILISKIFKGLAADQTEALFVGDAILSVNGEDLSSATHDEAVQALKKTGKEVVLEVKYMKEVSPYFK

B1: MBP-43-8(low)-syn. lig.(S5), ligand VKESLV (other, not shown: large carriers)
chain: GEAPFQCRICMANFSRQDRLDRHTRTHTGEKPFQCRICMANFSQKEHLAGHLRTHTGEKPFQCRICMANFSRRDNLNRHLKTHLRGSGSGVKESLV
EC50 of synTF titration on nc=2 DBM oligo probe (fluorescence anisotropy) in the presence of clamp [1]: 18 nM
EC50 of synTF titration on nc=3 DBM oligo probe (fluorescence anisotropy) in the presence of three-PDZ clamp [2]: 5.1 nM
